Substitutions are numbered along the chain they refer to. In names and notes the source's numbering stands.

As usually defined, the Kd is the constant that tells how readily two partners part at equilibrium. High values mean a looser complex, low ones a tighter complex.

The labels stand for the following.
T1: EsCas13d, nuclease-dead (Eubacterium siraeum, UniProt B0MS50, R295A;H300A;R849A;H854A)
T1 sequence: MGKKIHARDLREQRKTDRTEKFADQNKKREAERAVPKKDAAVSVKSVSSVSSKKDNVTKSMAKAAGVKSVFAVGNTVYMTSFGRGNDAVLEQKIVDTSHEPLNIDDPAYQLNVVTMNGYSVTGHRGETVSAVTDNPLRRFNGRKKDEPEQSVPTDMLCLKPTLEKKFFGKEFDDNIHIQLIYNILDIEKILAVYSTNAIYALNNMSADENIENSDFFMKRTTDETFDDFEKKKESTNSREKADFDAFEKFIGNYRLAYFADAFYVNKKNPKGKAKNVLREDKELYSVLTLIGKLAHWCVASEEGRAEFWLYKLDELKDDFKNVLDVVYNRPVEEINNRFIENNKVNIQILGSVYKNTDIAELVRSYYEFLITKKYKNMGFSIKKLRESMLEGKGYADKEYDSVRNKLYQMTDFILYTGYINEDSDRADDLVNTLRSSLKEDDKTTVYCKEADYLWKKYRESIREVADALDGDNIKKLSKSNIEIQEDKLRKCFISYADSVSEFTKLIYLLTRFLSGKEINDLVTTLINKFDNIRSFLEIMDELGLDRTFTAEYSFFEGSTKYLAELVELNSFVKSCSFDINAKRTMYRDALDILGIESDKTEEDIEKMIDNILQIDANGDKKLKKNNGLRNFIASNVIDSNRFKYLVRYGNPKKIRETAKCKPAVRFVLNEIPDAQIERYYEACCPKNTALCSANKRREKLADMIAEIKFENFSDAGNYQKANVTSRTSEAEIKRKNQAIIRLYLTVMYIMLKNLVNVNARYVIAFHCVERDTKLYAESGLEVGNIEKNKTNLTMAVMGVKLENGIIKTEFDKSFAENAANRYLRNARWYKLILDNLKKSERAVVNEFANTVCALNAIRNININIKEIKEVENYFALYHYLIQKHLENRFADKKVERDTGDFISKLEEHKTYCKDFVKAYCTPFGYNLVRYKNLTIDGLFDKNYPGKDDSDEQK

B1: target 3 insA 3' of 22,insA 3' of 21 (mixed)
RNA 1: CACCCGUGCAAAAUUGCAGGGGUCUAAAACGACCUGAAUAUUUCAGAUCAAA
RNA 2: GGGAAUGGAUCCACAUCUACGAAUUCGUUUAUAUGAUCUGAAAUAUUCAGGUCUGCAGAUCGGAAGAGCACACGU
B2: target 3 complement block 4-8 (mixed)
RNA 1: B1 RNA 1
RNA 2: GGGAAUGGAUCCACAUCUACGAAUUCGUUUUUGAUCUGAAAUAAAGUCGUCUGCAGAUCGGAAGAGCACACGU
B3: target 3 insG 3' of 9,insU 3' of 4 (mixed)
RNA 1: B1 RNA 1
RNA 2: GGGAAUGGAUCCACAUCUACGAAUUCGUUUUUGAUCUGAAAUAGUUCAGUGUCUGCAGAUCGGAAGAGCACACGU
B4: target 3 insC 3' of 9,insG 3' of 9 (mixed)
RNA 1: B1 RNA 1
RNA 2: B3 RNA 2 with G44C, U45G, C47U, A48C, G49A, U50G
B5: target 3 insU 3' of 14,insC 3' of 3 (mixed)
RNA 1: B1 RNA 1
RNA 2: B3 RNA 2 with A39U, U42A, A43U, G44A, U50G, G51C
B6: target 3 C6A,U8C (mixed)
RNA 1: B1 RNA 1
RNA 2: B2 RNA 2 with A44C, A45U, G46A, U47A, C48G
B7: target 3 G4C,A9G (mixed)
RNA 1: B1 RNA 1
RNA 2: B2 RNA 2 with A43G, A44U, A45U, G46C, U47A
B8: target 3 U2G,A9C (mixed)
RNA 1: B1 RNA 1
RNA 2: B2 RNA 2 with A43C, A44U, A45U, G46C, U47A, C48G, U50G
B9: target 3 insC 3' of 8,insA 3' of 8 (mixed)
RNA 1: B1 RNA 1
RNA 2: B3 RNA 2 with G44U, U45C, U46A, C47U, A48C, G49A, U50G
B10: target 3 insC 3' of 8,insC 3' of 5 (mixed)
RNA 1: B1 RNA 1
RNA 2: B3 RNA 2 with G44U, U45C, G49C, U50G
B11: target 3 C1A,U7G (mixed)
RNA 1: B1 RNA 1
RNA 2: B2 RNA 2 with A44U, A45G, G46C, U47A, C48G, C51A
B12: target 3 insC 3' of 7,insG 3' of 7 (mixed)
RNA 1: B1 RNA 1
RNA 2: B3 RNA 2 with G44U, U46C, C47G, A48C, G49A, U50G
B13: target 3 insC 3' of 9,insA 3' of 8 (mixed)
RNA 1: B1 RNA 1
RNA 2: B3 RNA 2 with G44C, U46A, C47U, A48C, G49A, U50G
B14: target 3 insU 3' of 11,insU 3' of 5 (mixed)
RNA 1: B1 RNA 1
RNA 2: B3 RNA 2 with A43U, G44A, G49U, U50G
B15: target 3 insG 3' of 8,insG 3' of 2 (mixed)
RNA 1: B1 RNA 1
RNA 2: B3 RNA 2 with G44U, U45G, U50G, G51U, U52G
B16: target 3 U2G,A13G (mixed)
RNA 1: B1 RNA 1
RNA 2: B2 RNA 2 with A39G, A44U, A45U, G46C, U47A, C48G, U50G
B17: target 3 U2C,C6G (mixed)
RNA 1: B1 RNA 1
RNA 2: B2 RNA 2 with A44U, A45U, U47A, C48G, U50C
B18: target 3 insC 3' of 5,insA 3' of 3 (mixed)
RNA 1: B1 RNA 1
RNA 2: B3 RNA 2 with G44U, U46C, C47A, A48C, U50G, G51A
B19: target 3 U7A,U22A (mixed)
RNA 1: B1 RNA 1
RNA 2: B2 RNA 2 with U30A, A44U, G46C, U47A, C48G
B20: target 3 U2C (mixed)
RNA 1: B1 RNA 1
RNA 2: B2 RNA 2 with A44U, A45U, G46C, U47A, C48G, U50C
B21: target 3 insU 3' of 11,insC 3' of 5 (mixed)
RNA 1: B1 RNA 1
RNA 2: B3 RNA 2 with A43U, G44A, G49C, U50G
B22: target 3 U8C,A11C (mixed)
RNA 1: B1 RNA 1
RNA 2: B2 RNA 2 with A41C, A44C, A45U, G46C, U47A, C48G
B23: target 3 G3C,U7C (mixed)
RNA 1: B1 RNA 1
RNA 2: B2 RNA 2 with A44U, A45C, G46C, U47A, C48G, G49C
B24: target 3 A12U (mixed)
RNA 1: B1 RNA 1
RNA 2: B2 RNA 2 with A40U, A44U, A45U, G46C, U47A, C48G
B25: target 3 C1G,A5G (mixed)
RNA 1: B1 RNA 1
RNA 2: B2 RNA 2 with A44U, A45U, G46C, U47G, C48G, C51G
B26: target 3 C1G,A12U (mixed)
RNA 1: B1 RNA 1
RNA 2: B2 RNA 2 with A40U, A44U, A45U, G46C, U47A, C48G, C51G
B27: target 3 A5G (mixed)
RNA 1: B1 RNA 1
RNA 2: B2 RNA 2 with A44U, A45U, G46C, U47G, C48G
B28: target 1 C2U,U10C (mixed)
RNA 1: CACCCGUGCAAAAAUGCAGGGGUCUAAAACUGAGCGGAUAACCUCUCUAUGG
RNA 2: GGGAAUGGAUCCACAUCUACGAAUUCGUACCAUAGAGAGGUCAUCCGCUUACCGAGAUCGGAAGAGCACACGU
B29: target 1 insA 3' of 22,insG 3' of 8 (mixed)
RNA 1: B28 RNA 1
RNA 2: GGGAAUGGAUCCACAUCUACGAAUUCGUACACAUAGAGAGGUUAUGCCGCUCACCGAGAUCGGAAGAGCACACGU
B30: target 1 insG 3' of 22,insU 3' of 20 (mixed)
RNA 1: B28 RNA 1
RNA 2: GGGAAUGGAUCCACAUCUACGAAUUCGUACGCAUUAGAGAGGUUAUCCGCUCACCGAGAUCGGAAGAGCACACGU

The target in the data set is T1, EsCas13d, nuclease-dead. Briefly: crRNA (strand 1, pre-loaded); Mg2+; 40 mM Tris-HCl pH 7.5, 150 mM NaCl, 6 mM MgCl2, 1 mM DTT, 0.1% Tween-20, 0.2 mg/ml BSA; 25 C; 10 min per concentration, then washed. Particulars: tags: His6-TwinStrep-SUMO cleaved; N-terminal SNAP kept (SNAP-Surface 488); label: 3' end held by stalled T7 RNA polymerase.
In turn, B1 gave a dissociation constant (Kd) of 31.9 ± 4.5 nM.

B2 came in with a Kd of 51.5 ± 5.5 nM.

B3 showed a dissociation constant (Kd) of 74.5 ± 19 nM.

B4 came in with a Kd of 118 ± 50 nM.

The molecule B5 registered a Kd of 71 ± 28 nM.

B6 returned a Kd of 34.9 ± 3.6 nM.

Turning to B7, the dissociation constant (Kd) worked out at 43.5 ± 6.5 nM.

In turn, B8 came in with a Kd of 106 ± 49.5 nM.

Molecule B9 displayed a Kd of 76.5 ± 19 nM.

B10 came in with a Kd of 74.5 ± 9.5 nM.

Regarding B11, the equilibrium dissociation constant (Kd) is 24.5 ± 6 nM.

The molecule B12 registered an equilibrium dissociation constant (Kd) of 16.8 ± 1.45 nM.

Molecule B13 yielded a Kd of 43.9 ± 7.35 nM.

The molecule B14 yielded a Kd of 64 ± 13 nM.

Molecule B15 showed a Kd of 57 ± 27 nM.

B16 registered an equilibrium dissociation constant (Kd) of 73.5 ± 29 nM.

Consider B17, for which the Kd is 31.5 ± 4.5 nM.

In the case of B18, the Kd is 7.35 ± 0.5 nM.

For B19, the Kd was 42.5 ± 7.25 nM.

Molecule B20 had a Kd of 88.5 ± 18 nM.

As for B21, the Kd is 81.5 ± 12.5 nM.

B22 showed an equilibrium dissociation constant (Kd) of 57 ± 14 nM.

As to B23, the Kd worked out at 64 ± 12 nM.

Molecule B24 had a Kd of 73.5 ± 19.5 nM.

B25 came in with a Kd of 55 ± 22 nM.

B26 came in with an equilibrium dissociation constant (Kd) of 63 ± 18 nM.

As to B27, the Kd is 20.9 ± 1.8 nM.

As to B28, the Kd was 20.8 ± 1.6 nM.

As for B29, the dissociation constant Kd stood at 17.4 ± 1 nM.

In turn, B30 yielded an equilibrium dissociation constant (Kd) of 38 ± 5 nM.

These data come from article PMC10786891, “Massively parallel profiling of RNA-targeting CRISPR-Cas13d”.
